Measured values as given in publication PMC7780100.

Experiment: 55Fe efflux after 10 µM hepcidin pretreatment, oocytes
Details: glycan lost; control: wild-type mouse Fpn

B1: mouse ferroportin (Fpn): N437D (protein)
parent chain: MTKARDQTHQEGCCGSLANYLTSAKFLLYLGHSLSTWGDRMWHFAVSVFLVELYGNSLLLTAVYGLVVAGSVLVLGAIIGDWVDKNARLKVAQTSLVVQNVSVILCGIILMMVFLHKNELLTMYHGWVLTVCYILIITIANIANLASTATAITIQRDWIVVVAGENRSRLADMNATIRRIDQLTNILAPMAVGQIMTFGSPVIGCGFISGWNLVSMCVEYFLLWKVYQKTPALAVKAALKVEESELKQLTSPKDTEPKPLEGTHLMGEKDSNIRELECEQEPTCASQMAEPFRTFRDGWVSYYNQPVFLAGMGLAFLYMTVLGFDCITTGYAYTQGLSGSILSILMGASAITGIMGTVAFTWLRRKCGLVRTGLFSGLAQLSCLILCVISVFMPGSPLDLSVSPFEDIRSRFVNVEPVSPTTKIPETVFTTEMHMSNMSNVHEMSTKPIPIVSVSLLFAGVIAARIGLWSFDLTVTQLLQENVIESERGIINGVQNSMNYLLDLLHFIMVILAPNPEAFGLLVLISVSFVAMGHLMYFRFAQKTLGNQIFVCGPDEKEVTDENQPNTSVV
- other: hepcidin inhibition of transport: no change
